Patent US20150329637A1 (NUMAB, published 2015)
Read-outs that look alike come from different tables or passages of the source.

Columns and labels:
[1] = target: mouse CD3 (mouse CD36E [sic], Sino Biologicals Inc., Cat. No. CT033-M2508H) (mouse) (UniProt P22646); experiment: SPR
[2] = target: T1, mouse IL23R (as used in the SPR of PRO387 and PRO386) (mouse, UniProt Q8K4B4 24-372, limits assumed); experiment: SPR
T1 sequence (looked up): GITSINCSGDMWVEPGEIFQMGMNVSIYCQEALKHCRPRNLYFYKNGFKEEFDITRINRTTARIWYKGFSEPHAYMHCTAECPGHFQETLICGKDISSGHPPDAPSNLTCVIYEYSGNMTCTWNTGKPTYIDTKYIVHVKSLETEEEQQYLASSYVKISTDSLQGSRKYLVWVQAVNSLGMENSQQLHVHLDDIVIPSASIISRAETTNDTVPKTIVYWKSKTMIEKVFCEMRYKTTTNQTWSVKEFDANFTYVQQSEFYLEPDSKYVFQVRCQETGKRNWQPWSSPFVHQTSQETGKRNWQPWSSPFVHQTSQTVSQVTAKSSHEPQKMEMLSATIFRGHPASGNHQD

[3] = target: mouse CD3 (mouse CD36E [sic], Sino Biologicals Inc., Cat. No. CT033-M2508H) (mouse) (UniProt P22646); experiment: SPR; remark: listed apart in the source
[4] = target: T1, mouse IL23R (as used in the SPR of …); experiment: SPR; remark: listed apart in the source
[5] = target: T2, recombinant human IL23R Fc chimera (R&D Systems, Cat. No. 1400-IR-050) (human, UniProt Q5VWK5 24-353); experiment: SPR; IL23R Fc chimera captured by anti-human Fc, scFv injected
T2 construct: Bought reagent; not shown: Fc part (and any linker) of the bought chimera; captured by an anti-human IgG Fc antibody
T2 sequence (looked up): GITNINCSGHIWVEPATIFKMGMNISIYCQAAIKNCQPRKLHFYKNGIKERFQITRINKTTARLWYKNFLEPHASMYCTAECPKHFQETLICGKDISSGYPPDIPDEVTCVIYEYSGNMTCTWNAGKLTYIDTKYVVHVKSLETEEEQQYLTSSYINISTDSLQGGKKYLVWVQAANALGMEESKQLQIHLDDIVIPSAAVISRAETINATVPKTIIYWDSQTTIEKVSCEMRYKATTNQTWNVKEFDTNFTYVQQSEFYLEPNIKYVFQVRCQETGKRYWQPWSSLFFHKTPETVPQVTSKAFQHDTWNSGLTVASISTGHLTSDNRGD
Description: (§1) Binding affinities of anti-IL23R scFvs were measured by surface plasmon resonance (SPR) using a MASS-1 SPR instrument (Sierra Sensors). […] After immobilization, 1 ug/ml recombinant human IL23R Fc chimera (R&D Systems, Cat. No. 1400-IR-050) was captured by the anti-human IgG antibody while a second immobilized channel served as a control where the capture was replaced by buffer. Two-fold serial dilutions of human scFvs ranging from 180 to 2.81 nM were injected into both flow cells for 3 min and dissociation of the scFvs from the chimera on the sensor chip was allowed to proceed for 700 sec. After each injection cycle, surfaces were regenerated with two 1 min injections of 10 mM glycine-HCI pH 1.5. In a similar manner the affinities for cynomolgus and mouse IL23R Fc chimera (R&D Systems, Cat. No. 1686-MR-050) was measured. The apparent dissociation (kd) and association (ka) rate constants and the apparent dissociation equilibrium constant (KD) were calculated with the MASS-1 analysis software (Analyzer, Sierra Sensors) using one-to-one Langmuir binding model.

[6] = target: T3, cynomolgus IL23R Fc chimera (cynomolgus monkey, UniProt G7NWY5 24-353); experiment: as above
T3 construct: Named only in the method sentence 'cynomolgus and mouse IL23R Fc chimera'; also called cyno IL23R; not shown: Fc part of the chimera
T3 sequence: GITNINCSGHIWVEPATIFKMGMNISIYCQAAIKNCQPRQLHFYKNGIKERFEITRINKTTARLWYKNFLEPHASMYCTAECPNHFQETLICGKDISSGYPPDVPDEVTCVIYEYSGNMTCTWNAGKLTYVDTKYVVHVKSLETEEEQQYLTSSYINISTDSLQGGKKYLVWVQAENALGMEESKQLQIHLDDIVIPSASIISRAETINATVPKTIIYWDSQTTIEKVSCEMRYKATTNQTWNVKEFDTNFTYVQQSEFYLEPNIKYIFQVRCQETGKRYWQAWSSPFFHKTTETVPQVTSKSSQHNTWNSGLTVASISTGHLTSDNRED
Description: as §1

[7] = target: T4, mouse IL23R Fc chimera (R&D Systems, Cat. No. 1686-MR-050) (mouse, UniProt Q8K4B4 24-372); experiment: as above
T4 construct: Bought reagent; Fc part of the bought chimera not given
T4 sequence (looked up): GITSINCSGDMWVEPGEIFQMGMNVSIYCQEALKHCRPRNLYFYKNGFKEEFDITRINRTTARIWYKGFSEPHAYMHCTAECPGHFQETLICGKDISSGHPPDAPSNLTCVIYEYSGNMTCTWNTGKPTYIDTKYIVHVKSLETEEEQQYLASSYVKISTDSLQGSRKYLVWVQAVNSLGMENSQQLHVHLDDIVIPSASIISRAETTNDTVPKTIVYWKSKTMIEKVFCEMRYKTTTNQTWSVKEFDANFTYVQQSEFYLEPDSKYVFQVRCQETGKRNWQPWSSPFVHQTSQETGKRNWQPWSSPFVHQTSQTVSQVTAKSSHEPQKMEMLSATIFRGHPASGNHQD
Description: as §1

mouse CD3 (mouse CD36E [sic], Sino Biologicals Inc., Cat. No. CT033-M2508H) (mouse), sequence (P22646 22-108, chain 1 of 2): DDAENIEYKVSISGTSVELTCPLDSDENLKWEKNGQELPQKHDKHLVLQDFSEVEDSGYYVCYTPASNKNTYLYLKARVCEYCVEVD
mouse CD3 (mouse CD36E [sic], Sino Biologicals Inc., Cat. No. CT033-M2508H) (mouse), sequence (P04235 22-105, chain 2 of 2, further chain): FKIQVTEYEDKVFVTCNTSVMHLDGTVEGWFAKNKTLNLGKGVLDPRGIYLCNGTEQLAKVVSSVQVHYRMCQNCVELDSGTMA

B1: PRO387 (bispecific antibody)
chain: DIQMTQSPSSLSASVGDRVTITCQASENIYSFLAWYQQKPGKAPKLLIYSASKLAAGVPSRFSGSGSGTDFTLTISSLQPEDFATYYCQQTNRYSNPDIYNVFGQGTKLTVLGGGGGSEVQLVESGGGLVQPGKSLKLSCEASGFTFSGYGMHWVRQAPGRGLESVAYITSSSINIKYADAVKGRFTVSRDNAKNLLFLQMNILKSEDTAMYYCARFDWDKNYWGQGTMVTVSSGGGGSGGGGSGGGGSGGGGSDIQMTQSPSSLPASLGDRVTINCQASQDISNYLNWYQQKPGKAPKLLIYYTNKLADGVPSRFSGSGSGRDSSFTISSLESEDIGSYYCQQYYNYPWTFGPGTKLEIKRGGGGSEVQLVESGGGLVQPGGSLRLSCAASGIDFNSNYYMCWVRQAPGKGLEWIGCIYVGSHVNTYYANWAKGRFTISRDNSKNTVYLQMNSLRAEDTAVYYCATSGSSVLYFKFWGQGTLVTVSS
notes: also called PRO387 (scDb); surrogate scDb
In the case of B1, the Kd [1] is reported as 9.11 nM, the koff [1] is reported as 0.00213 s⁻¹ and the kon [1] is reported as 233000 M⁻¹ s⁻¹. It also gave a Kd [2] of 4.66 nM, a koff [2] of 0.00326 s⁻¹ and a kon [2] of 701000 M⁻¹ s⁻¹.

B2: PRO386 (bispecific antibody)
light: DIQMTQSPSSLPASLGDRVTINCQASQDISNYLNWYQQKPGKAPKLLIYYTNKLADGVPSRFSGSGSGRDSSFTISSLESEDIGSYYCQQYYNYPWTFGPGTKLEIKRRTVAAPSVFIFPPSDEQLKSGTASVVCLLNNFYPREAKVQWKVDNALQSGNSQESVTEQDSKDSTYSLSSTLTLSKADYEKHKVYACEVTHQGLSSPVTKSFNRGECGGGGSGGGGSHMDIQMTQSPSSLSASVGDRVTITCQASENIYSFLAWYQQKPGKAPKLLIYSASKLAAGVPSRFSGSGSGTDFTLTISSLQPEDFATYYCQQTNRYSNPDIYNVFGQGTKLTVLGGGGGSGGGGSGGGGSGGGGSEVQLVESGGGLVQPGGSLRLSCAASGIDFNSNYYMCWVRQAPGKGLEWIGCIYVGSHVNTYYANWAKGRFTISRDNSKNTVYLQMNSLRAEDTAVYYCATSGSSVLYFKFWGQGTLVTVSS
heavy: EVQLVESGGGLVQPGKSLKLSCEASGFTFSGYGMHWVRQAPGRGLESVAYITSSSINIKYADAVKGRFTVSRDNAKNLLFLQMNILKSEDTAMYYCARFDWDKNYWGQGTMVTVSSASTKGPSVFPLAPSSKSTSGGTAALGCLVKDYFPEPVTVSWNSGALTSGVHTFPAVLQSSGLYSLSSVVTVPSSSLGTQTYICNVNHKPSNTKVDKKVEPKSCGGGGSGGGGSHMDIQMTQSPSSLSASVGDRVTITCQASENIYSFLAWYQQKPGKAPKLLIYSASKLAAGVPSRFSGSGSGTDFTLTISSLQPEDFATYYCQQTNRYSNPDIYNVFGQGTKLTVLGGGGGSGGGGSGGGGSGGGGSEVQLVESGGGLVQPGGSLRLSCAASGIDFNSNYYMCWVRQAPGKGLEWIGCIYVGSHVNTYYANWAKGRFTISRDNSKNTVYLQMNSLRAEDTAVYYCATSGSSVLYFKFWGQGTLVTVSS
notes: Heterodimer; bispecific and trivalent (one anti-CD3 Fab, two anti-IL23R scFvs); also called PRO386 (Tribody); Fab-scFv fusion surrogate
B2 showed a Kd [3] of 11.5 nM, a koff [3] of 0.00196 s⁻¹ and a kon [3] of 171000 M⁻¹ s⁻¹. The Kd [4] was 0.583 nM, the koff [4] was 0.000533 s⁻¹ and the kon [4] was 915000 M⁻¹ s⁻¹.

B3: 14-11-D07-sc01 (scFv)
scFv: DIQMTQSPSSLSASVGDRVTITCQASENIYSFLAWYQQKPGKAPKLLIYSASKLAAGVPSRFSGSGSGTDFTLTISSLQPEDFATYYCQQTNRYSNPDIYNVFGQGTKLTVLGGGGGSGGGGSGGGGSGGGGSEVQLVESGGGLVQPGGSLRLSCAASGIDFNSNYYMCWVRQAPGKGLEWIGCIYVGSHVNTYYANWAKGRFTISRDNSKNTVYLQMNSLRAEDTAVYYCATSGSSVLYFKFWGQGTLVTVSS
notes: Humanized scFv (CDR graft on a VK1/VH3 framework); also called anti-IL23R scFv 14-11-D07-sc01
B3 showed a Kd [5] of 0.116 nM, a koff [5] of 0.000259 s⁻¹ and a kon [5] of 2.24e+06 M⁻¹ s⁻¹. For the same binder, the Kd [6] was 0.124 nM, the koff [6] was 0.000361 s⁻¹ and the kon [6] was 2.92e+06 M⁻¹ s⁻¹. It also gave a Kd [7] of 2.21 nM, a koff [7] of 0.00418 s⁻¹ and a kon [7] of 1.89e+06 M⁻¹ s⁻¹.

B4: PRO400 (Fab, V domains shown)
VH: EVQLVESGGGLVQPGKSLKLSCEASGFTFSGYGMHWVRQAPGRGLESVAYITSSSINIKYADAVKGRFTVSRDNAKNLLFLQMNILKSEDTAMYYCARFDWDKNYWGQGTMVTVSS
VL: DIQMTQSPSSLPASLGDRVTINCQASQDISNYLNWYQQKPGKAPKLLIYYTNKLADGVPSRFSGSGSGRDSSFTISSLESEDIGSYYCQQYYNYPWTFGPGTKLEIKR
In the case of B4, the Kd [1] is reported as 11.4 nM, the koff [1] is reported as 0.00266 s⁻¹ and the kon [1] is reported as 233000 M⁻¹ s⁻¹.
